Reference: US20240392004A1 (IMMUNOWAKE, published 2024)
Positions count from the first letter of the chain named. Names may count otherwise.

T1: mouse PD-1 (mouse, UniProt Q02242 25-167, limits assumed)
T1 construct: also called mPD-1
T1 sequence (looked up): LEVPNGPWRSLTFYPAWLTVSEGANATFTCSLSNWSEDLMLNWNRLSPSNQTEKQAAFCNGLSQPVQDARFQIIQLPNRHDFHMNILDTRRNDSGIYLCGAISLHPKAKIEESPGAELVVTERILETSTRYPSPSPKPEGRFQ

T2: human IL-2 receptor (IL-2Rα, IL-2Rβ, IL-2Rγ) (human, UniProt P01589 22-272; P14784 27-551; P31785 23-369)
T2 sequence (looked up) 1: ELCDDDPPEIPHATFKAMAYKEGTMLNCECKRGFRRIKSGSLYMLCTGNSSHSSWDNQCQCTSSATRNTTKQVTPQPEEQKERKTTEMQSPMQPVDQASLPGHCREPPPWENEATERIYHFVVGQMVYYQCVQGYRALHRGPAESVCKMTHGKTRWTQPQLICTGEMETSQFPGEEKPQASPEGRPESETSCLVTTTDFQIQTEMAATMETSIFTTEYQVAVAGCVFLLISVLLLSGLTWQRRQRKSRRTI
T2 sequence (looked up) 2: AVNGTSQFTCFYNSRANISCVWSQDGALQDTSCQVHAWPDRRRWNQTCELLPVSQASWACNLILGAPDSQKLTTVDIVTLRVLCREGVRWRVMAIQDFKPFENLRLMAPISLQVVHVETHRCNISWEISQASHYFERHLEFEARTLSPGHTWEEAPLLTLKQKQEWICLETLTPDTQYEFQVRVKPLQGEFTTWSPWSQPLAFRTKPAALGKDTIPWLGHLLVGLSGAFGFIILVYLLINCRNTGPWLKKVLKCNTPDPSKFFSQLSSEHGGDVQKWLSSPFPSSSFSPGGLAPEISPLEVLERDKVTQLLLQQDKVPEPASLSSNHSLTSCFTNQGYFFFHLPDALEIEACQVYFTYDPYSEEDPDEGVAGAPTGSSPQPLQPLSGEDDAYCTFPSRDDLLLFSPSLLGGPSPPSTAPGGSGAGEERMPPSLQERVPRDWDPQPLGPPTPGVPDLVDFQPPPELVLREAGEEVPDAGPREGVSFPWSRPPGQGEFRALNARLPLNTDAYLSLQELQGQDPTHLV
T2 sequence (looked up) 3: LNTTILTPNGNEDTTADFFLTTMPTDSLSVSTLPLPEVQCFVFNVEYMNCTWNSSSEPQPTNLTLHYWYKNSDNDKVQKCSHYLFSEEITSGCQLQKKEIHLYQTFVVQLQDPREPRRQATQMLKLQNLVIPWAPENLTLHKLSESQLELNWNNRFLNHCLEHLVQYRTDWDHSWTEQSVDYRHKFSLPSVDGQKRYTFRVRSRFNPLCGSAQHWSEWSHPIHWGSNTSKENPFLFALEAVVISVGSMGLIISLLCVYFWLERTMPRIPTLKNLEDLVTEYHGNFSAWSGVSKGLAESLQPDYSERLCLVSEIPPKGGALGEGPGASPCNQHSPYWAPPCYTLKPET

B1: PD-L1(mut7)-Fc, I54Q/E58M/R113T/M115L/S117A (Fc fusion)
chain 1: FTVTVPKDLYVVEYGSNMTIECKFPVEKQLDLAALQVYWMMEDKNIIQFVHGEEDLKVQHSSYRQRARLLKDQLSLGNAALQITDVKLQDAGVYTCLIAYGGADYKRITVKVNAPYNKINQRILVVDPVTSEHELTCQAEGYPKAEVIWTSSDHQVLSGKTTTTNSKREEKLFNVTSTLRINTTTNEIFYCTFRRLDPEENHTAELVIPELPLAHPPNERGGGGSGGGDKTHTCPPCPAPEDEGGPSVFLFPPKPKDTLMISRTPEVTCVVVDVSHEDPEVKFNWYVDGVEVHNAKTKPREEQYNSTYRVVSVLTVLHQDWLNGKEYKCKVSNKALPAPIEKTISKAKGQPREPQVYVYPPSREEMTKNQVSLTCLVKGFYPSDIAVEWESNGQPENNYKTTPPVLDEDGSFALVSKLTVDKSRWQQGNVFSCSVMHEALHNHYTQKSLSLSPGK
chain 2: B1 chain 1 with D242K, E243K, Y359L, T374L, N398R, K400M, T402W, E408S, A413F, V415Y
B2: IL-2(R38D/K43E/E61R/Q126T)/PD-L1(mut2)-Fc/IL-12(E59A/F60A) (Fc fusion)
chain 1: FTVTVPKDLYVVEYGSNMTIECKFPVEKQLDLAALQVYWMMEDKNIIQFVHGEEDLKVQHSSYRQRARLLKDQLSLGNAALQITDVKLQDAGVYTCLIAYKGADYKRITVKVNAPYNKINQRILVVDPVTSEHELTCQAEGYPKAEVIWTSSDHQVLSGKTTTTNSKREEKLFNVTSTLRINTTTNEIFYCTFRRLDPEENHTAELVIPELPLAHPPNERGGGGSGGGDKTHTCPPCPAPEDEGGPSVFLFPPKPKDTLMISRTPEVTCVVVDVSHEDPEVKFNWYVDGVEVHNAKTKPREEQYNSTYRVVSVLTVLHQDWLNGKEYKCKVSNKALPAPIEKTISKAKGQPREPQVYVYPPSREEMTKNQVSLTCLVKGFYPSDIAVEWESNGQPENNYKTTPPVLDEDGSFALVSKLTVDKSRWQQGNVFSCSVMHEALHNHYTQKSLSLSPGKGGGGSGGGIWELKKDVYVVELDWYPDAPGEMVVLTCDTPEEDGITWTLDQSSEVLGSGKTLTIQVKAAGDAGQYTCHKGGEVLSHSLLLLHKKEDGIWSTDILKDQKEPKNKTFLRCEAKNYSGRFTCWWLTTISTDLTFSVKSSRGSSDPQGVTCGAATLSAERVRGDNKEYEYSVECQEDSACPAAEESLPIEVMVDAVHKLKYENYTSSFFIRDIIKPDPPKNLQLKPLKNSRQVEVSWEYPDTWSTPHSYFSLTFCVQVQGKSKREKKDRVFTDKTSATVICRKNASISVRAQDRYYSSSWSEWASVPCSGGGGSGGGSGGGGSRNLPVATPDPGMFPCLHHSQNLLRAVSNMLQKARQTLEFYPCTSEEIDHEDITKDKTSTVEACLPLELTKNESCLNSRETSFITNGSCLASRKTSFMMALCLSSIYEDLKMYQVEFKTMNAKLLMDPKRQIFLDQNMLAVIDELMQALNFNSETVPQKSSLEEPDFYKTKIKLCILLHAFRIRAVTIDRVMSYLNAS
chain 2: FTVTVPKDLYVVEYGSNMTIECKFPVEKQLDLAALQVYWMMEDKNIIQFVHGEEDLKVQHSSYRQRARLLKDQLSLGNAALQITDVKLQDAGVYTCLIAYKGADYKRITVKVNAPYNKINQRILVVDPVTSEHELTCQAEGYPKAEVIWTSSDHQVLSGKTTTTNSKREEKLFNVTSTLRINTTTNEIFYCTFRRLDPEENHTAELVIPELPLAHPPNERGGGSGAPTSSSTKKTQLQLEHLLLDLQMILNGINNYKNPKLTDMLTFEFYMPKKATELKHLQCLERELKPLEEVLNLAQSKNFHLRPRDLISNINVIVLELKGSETTFMCEYADETATIVEFLNRWITFCTSIISTLTGGGGSGGGDKTHTCPPCPAPEKKGGPSVFLFPPKPKDTLMISRTPEVTCVVVDVSHEDPEVKFNWYVDGVEVHNAKTKPREEQYNSTYRVVSVLTVLHQDWLNGKEYKCKVSNKALPAPIEKTISKAKGQPREPQVYVLPPSREEMTKNQVSLLCLVKGFYPSDIAVEWESNGQPENRYMTWPPVLDSDGSFFLYSKLTVDKSRWQQGNVFSCSVMHEALHNHYTQKSLSLSPGK
B3: PD-L1(mut3)-Fc, I54Q/R113T/M115L/S117A/G119K (Fc fusion)
chain 1: FTVTVPKDLYVVEYGSNMTIECKFPVEKQLDLAALQVYWEMEDKNIIQFVHGEEDLKVQHSSYRQRARLLKDQLSLGNAALQITDVKLQDAGVYTCLIAYKGADYKRITVKVNAPYNKINQRILVVDPVTSEHELTCQAEGYPKAEVIWTSSDHQVLSGKTTTTNSKREEKLFNVTSTLRINTTTNEIFYCTFRRLDPEENHTAELVIPELPLAHPPNERDKTHTCPPCPAPEDEGGPSVFLFPPKPKDTLMISRTPEVTCVVVDVSHEDPEVKFNWYVDGVEVHNAKTKPREEQYNSTYRVVSVLTVLHQDWLNGKEYKCKVSNKALPAPIEKTISKAKGQPREPQVYVYPPSREEMTKNQVSLTCLVKGFYPSDIAVEWESNGQPENNYKTTPPVLDEDGSFALVSKLTVDKSRWQQGNVFSCSVMHEALHNHYTQKSLSLSPGK
chain 2: B3 chain 1 with D234K, E235K, Y351L, T366L, N390R, K392M, T394W, E400S, A405F, V407Y
B4: PD-L1(mut4)-Fc, I54Q/E58M/M115L/S117A/G119K (Fc fusion)
chain 1: B3 chain 1 with E40M, T95R
chain 2: FTVTVPKDLYVVEYGSNMTIECKFPVEKQLDLAALQVYWMMEDKNIIQFVHGEEDLKVQHSSYRQRARLLKDQLSLGNAALQITDVKLQDAGVYRCLIAYKGADYKRITVKVNAPYNKINQRILVVDPVTSEHELTCQAEGYPKAEVIWTSSDHQVLSGKTTTTNSKREEKLFNVTSTLRINTTTNEIFYCTFRRLDPEENHTAELVIPELPLAHPPNERDKTHTCPPCPAPEKKGGPSVFLFPPKPKDTLMISRTPEVTCVVVDVSHEDPEVKFNWYVDGVEVHNAKTKPREEQYNSTYRVVSVLTVLHQDWLNGKEYKCKVSNKALPAPIEKTISKAKGQPREPQVYVLPPSREEMTKNQVSLLCLVKGFYPSDIAVEWESNGQPENRYMTWPPVLDSDGSFFLYSKLTVDKSRWQQGNVFSCSVMHEALHNHYTQKSLSLSPGK
B5: PD-L1(mut5)-Fc, I54Q/E58M/R113T/S117A/G119K (Fc fusion)
chain 1: B3 chain 1 with E40M, L97M
chain 2: B4 chain 2 with R95T, L97M
B6: PD-L1(mut6)-Fc, I54Q/E58M/R113T/M115L/G119K (Fc fusion)
chain 1: B3 chain 1 with E40M, A99S
chain 2: B4 chain 2 with R95T, A99S

Experiments:
human PD-1 = target: T3, human PD-1 (human, UniProt Q15116 25-167, limits assumed); assay: PD-L1-Fc format, calibrated on PD-L1(wt)-Fc, method not stated
T3 construct: also called hPD-1
T3 sequence (Q15116 25-167 limits assumed): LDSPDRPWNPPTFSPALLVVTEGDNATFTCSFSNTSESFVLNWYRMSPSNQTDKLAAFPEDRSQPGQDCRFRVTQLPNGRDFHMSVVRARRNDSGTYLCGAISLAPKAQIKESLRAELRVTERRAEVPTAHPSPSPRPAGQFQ

mouse PD-1 = target: T1, mouse PD-1; assay: as above
[1] = target: human PD-1 on cells (HEK-PD-1 reporter cells; activated PBMC) (human, UniProt Q15116 25-288); assay: cell-based or functional assay
Chain of human PD-1 on cells (HEK-PD-1 reporter cells; activated PBMC) (Q15116 25-288): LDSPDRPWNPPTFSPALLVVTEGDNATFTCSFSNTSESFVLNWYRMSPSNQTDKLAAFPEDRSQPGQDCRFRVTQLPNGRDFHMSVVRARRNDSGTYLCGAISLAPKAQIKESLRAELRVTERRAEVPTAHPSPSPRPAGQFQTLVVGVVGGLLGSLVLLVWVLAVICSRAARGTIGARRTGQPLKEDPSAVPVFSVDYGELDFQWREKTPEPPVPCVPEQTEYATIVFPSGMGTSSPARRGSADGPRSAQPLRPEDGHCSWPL

[2] = target: human IL-12 receptor complex (IL-12Rβ1 and IL-12Rβ2) (human, UniProt P42701 24-662; Q99665 24-862); assay: cell-based or functional assay
Chain of human IL-12 receptor complex (IL-12Rβ1 and IL-12Rβ2) (Q99665 24-862, chain 2 of 2, other chains not shown): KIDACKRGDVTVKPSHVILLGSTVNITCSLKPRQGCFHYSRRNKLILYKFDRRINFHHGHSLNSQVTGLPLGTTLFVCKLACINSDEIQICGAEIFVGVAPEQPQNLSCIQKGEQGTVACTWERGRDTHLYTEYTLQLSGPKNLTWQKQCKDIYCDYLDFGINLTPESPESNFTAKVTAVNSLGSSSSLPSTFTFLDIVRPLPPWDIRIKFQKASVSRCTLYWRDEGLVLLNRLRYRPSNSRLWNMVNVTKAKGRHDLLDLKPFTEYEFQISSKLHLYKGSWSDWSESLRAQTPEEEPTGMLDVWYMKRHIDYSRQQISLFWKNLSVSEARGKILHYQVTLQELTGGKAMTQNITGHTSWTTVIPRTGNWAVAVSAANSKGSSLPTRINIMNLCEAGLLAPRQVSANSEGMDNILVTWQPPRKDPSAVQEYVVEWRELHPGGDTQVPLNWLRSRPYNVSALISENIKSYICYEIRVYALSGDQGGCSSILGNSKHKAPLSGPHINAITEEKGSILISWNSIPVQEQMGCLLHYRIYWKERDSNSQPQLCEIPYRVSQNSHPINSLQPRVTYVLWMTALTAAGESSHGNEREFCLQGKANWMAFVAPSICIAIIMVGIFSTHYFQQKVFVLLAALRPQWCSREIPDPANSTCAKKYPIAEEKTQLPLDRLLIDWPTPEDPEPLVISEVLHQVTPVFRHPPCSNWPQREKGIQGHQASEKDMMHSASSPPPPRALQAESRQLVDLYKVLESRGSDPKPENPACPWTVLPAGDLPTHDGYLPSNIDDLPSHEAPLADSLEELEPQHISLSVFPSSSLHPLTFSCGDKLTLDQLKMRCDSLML

[3] = target: T2, human IL-2 receptor (IL-2Rα, IL-2Rβ, …); assay: cell-based or functional assay

Binder | Kd (human PD-1) [nM] | Kd (mouse PD-1) [nM] | IL-2 signal transduction, HEK-IL-2-PD-1 [1] [%] | IL-12 signal transduction, HEK-IL-12-PD-1 [1] [%] | IL-12 signal transduction, HEK-IL-12 [2] [%] | IL-2 signal transduction, HEK-IL-2 [3] [%]
B1 | 98 | 110 | – | – | – | –
B2 | – | – | 31 | 30 | 1 | 3
B3 | 910 | 820 | – | – | – | –
B4 | 1090 | 980 | – | – | – | –
B5 | 1200 | 1100 | – | – | – | –
B6 | 555 | 420 | – | – | – | –
